According to the supplement of paper PMC7877785:
± gives the uncertainty stated by the source.

Assay: self-splicing fitness, log relative to wild type (ln ratio); higher = more splicing; Tetrahymena group I intron in knt gene, E. coli kanamycin selection, DiMSum; sequences stand for … in CUCUCU…GGAGGGAAAAGUUAUCAGGCAUGCACCUGGUAGCUAGUCUUUAAACCAAUAGAUUGCAUCGGUUUAAAAGGCAAGACCGUCAAAUUGCGGGAAAGGGGUCAACAGCCGUUCAGUACCAAGUCUCAGGGGAAACUUUGAGAUGGCCUUGCAAAGGGUAUGGUAAUAAGCUGACGGACAUGGUCCUAACCACGCAGCCAAGUCCUAAGUCAACAGAUCUUCUGUUGAUAUGGAUGCAGUUCACAGACUAAAUGUCGGUCGGGGAAGAUGUAUUCUUCUCAUAAGAUAUAGUCGGACCUCUCCUUAAUGGGAGCUAGCGGAUGAAGUGAUGCAACACUGGAGCCGCUGGGAACUAAUUUGUAUGCGAAAGUAUAUUGAUUAGUUUUGGAGUACUCGUGGUCG
In short: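 Colonies from six replicate transformations of E. coli BL21(DE3) were pooled and amplicon-sequenced on an Illumina HiSeq 2500. The library placed an intron with all eight P1ex-region nucleotides randomised inside the knt kanamycin-resistance gene on pET-22b(+), and cells grew overnight at 37°C or 30°C on LB agar with or without 25 μg/mL kanamycin (plus 100 μg/mL carbenicillin, 50 μM IPTG, 0.2% rhamnose). Fitness is the DiMSum error-weighted combination of wild-type-normalised replicate fold changes, kanamycin versus none.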

| Sequence | self-splicing fitness (ln) (30 °C) | self-splicing fitness (ln) (37 °C) |
| --- | --- | --- |
| UCAAAGCAAUAUUACGAAUA | -1.92 ± 0.43 | -1.78 ± 0.3 |
| UCAAAGCAAUAUUACGACAC | -3.05 ± 0.48 | -1.97 ± 0.43 |
| UCAAAGCAAUAUUACGAGCU | -2.83 ± 0.23 | -1.38 ± 0.22 |
| UCAAAGCAAUAUUACGAGGA | -2.69 ± 0.15 | -0.561 ± 0.13 |
| UCAAAGCAAUAUUACGAGGC |  | -2.69 ± 0.3 |
| UCAAAGCAAUAUUACGAUAC | -3.34 ± 0.28 | -2.82 ± 0.28 |
| UCAAAGCAAUAUUACGAUAG | -0.853 ± 0.11 | -2.03 ± 0.15 |
| UCAAAGCAAUAUUACGAUGA | -0.6 ± 0.074 | -0.51 ± 0.084 |
| UCAAAGCAAUAUUACGCAUG | -1.44 ± 0.12 | -1.27 ± 0.14 |
| UCAAAGCAAUAUUACGCCUU | -3.63 ± 0.26 | -2.93 ± 0.28 |
| UCAAAGCAAUAUUACGGAAA | -2.64 ± 0.41 | -1.15 ± 0.19 |
| UCAAAGCAAUAUUACGGAGG | -3.48 ± 0.28 | -1.67 ± 0.21 |
| UCAAAGCAAUAUUACGGGGC | -2.18 ± 0.16 | -2.14 ± 0.19 |
| UCAAAGCAAUAUUACGGUAU | -4.12 ± 0.24 | -3.55 ± 0.29 |
| UCAAAGCAAUAUUACGUAAC | -3.86 ± 0.21 | -2.39 ± 0.27 |
| UCAAAGCAAUAUUACGUCCC | -0.356 ± 0.2 | -1.14 ± 0.47 |
| UCAAAGCAAUAUUACGUGGA | -1.49 ± 0.1 | -1.6 ± 0.11 |
| UCAAAGCAAUAUUACGUGUC | -3.25 ± 0.22 | -1.69 ± 0.19 |
| UCAAAGCAAUAUUACGUUCA | -0.821 ± 0.099 | -0.534 ± 0.11 |
| UCAAAGCAAUAUUACGUUGA | -3.43 ± 0.14 | -2.66 ± 0.18 |
| UCACAGCAAUAUUACGAAAU | -3.43 ± 0.37 | -0.587 ± 0.16 |
| UCACAGCAAUAUUACGACAU | -3.584 ± 0.02 | -2.19 ± 0.034 |
| UCACAGCAAUAUUACGACUG | -2.18 ± 0.098 | -0.964 ± 0.12 |
| UCACAGCAAUAUUACGAUAC | -3.87 ± 0.26 | -2.75 ± 0.35 |
| UCACAGCAAUAUUACGAUCG | -0.61 ± 0.08 | -0.076 ± 0.11 |

| Sequence | self-splicing fitness (ln) (30 °C) | self-splicing fitness (ln) (37 °C) |
| --- | --- | --- |
| UCACAGCAAUAUUACGCACG | -1.22 ± 0.091 | -0.319 ± 0.14 |
| UCACAGCAAUAUUACGCAUC | -4.21 ± 0.36 | -3.04 ± 0.4 |
| UCACAGCAAUAUUACGCCAU | -3.28 ± 0.19 | -2.22 ± 0.18 |
| UCACAGCAAUAUUACGCCCU | -3.66 ± 0.35 | -0.688 ± 0.2 |
| UCACAGCAAUAUUACGCCGA | -0.333 ± 0.1 | 0.184 ± 0.14 |
| UCACAGCAAUAUUACGCCGG | -0.748 ± 0.13 | 0.108 ± 0.13 |
| UCACAGCAAUAUUACGCCUU | -3.82 ± 0.37 | -2.71 ± 0.41 |
| UCACAGCAAUAUUACGCUCG | -1.15 ± 0.086 | 0.16 ± 0.1 |
| UCACAGCAAUAUUACGCUGA | -2.76 ± 0.18 | -1.54 ± 0.14 |
| UCACAGCAAUAUUACGGACA | -1.22 ± 0.099 | -0.687 ± 0.099 |
| UCACAGCAAUAUUACGGAGA | -1.48 ± 0.1 | -0.898 ± 0.11 |
| UCACAGCAAUAUUACGGCUC | -2.9 ± 0.22 | -1.87 ± 0.21 |
| UCACAGCAAUAUUACGGGAA | -1.98 ± 0.1 | -0.945 ± 0.089 |
| UCACAGCAAUAUUACGGGGU | -3.58 ± 0.14 | -2.67 ± 0.18 |
| UCACAGCAAUAUUACGGUCG | -0.0254 ± 0.054 | 0.119 ± 0.061 |
| UCACAGCAAUAUUACGUACG | -0.786 ± 0.093 | -0.747 ± 0.1 |
| UCACAGCAAUAUUACGUCCA | -0.951 ± 0.14 | -0.533 ± 0.14 |
| UCACAGCAAUAUUACGUCGG | -1.43 ± 0.077 | -0.796 ± 0.083 |
| UCACAGCAAUAUUACGUCUC | -3.42 ± 0.25 | -1.77 ± 0.2 |
| UCACAGCAAUAUUACGUGAC | -3.26 ± 0.12 | -2.5 ± 0.22 |
| UCACAGCAAUAUUACGUUGA | -2.56 ± 0.11 | -2.1 ± 0.11 |
| UCAGAGCAAUAUUACGAAGG | -2.15 ± 0.085 | -1.84 ± 0.12 |
| UCAGAGCAAUAUUACGAAUU |  | -2.24 ± 0.37 |
| UCAGAGCAAUAUUACGACCA | -2.73 ± 0.38 | -2.63 ± 0.47 |
| UCAGAGCAAUAUUACGACGA | -0.0796 ± 0.1 | -0.26 ± 0.11 |

| Sequence | self-splicing fitness (ln) (30 °C) | self-splicing fitness (ln) (37 °C) |
| --- | --- | --- |
| UCAGAGCAAUAUUACGACGC |  | -1.69 ± 0.4 |
| UCAGAGCAAUAUUACGACGU | -1.87 ± 0.2 | 0.0812 ± 0.17 |
| UCAGAGCAAUAUUACGAUUA | -1.18 ± 0.28 |  |
| UCAGAGCAAUAUUACGAUUU | -3.82 ± 0.3 | -1.67 ± 0.22 |
| UCAGAGCAAUAUUACGCCGG | -2.92 ± 0.24 |  |
| UCAGAGCAAUAUUACGCGUU | -4.72 ± 0.29 | -2.78 ± 0.21 |
| UCAGAGCAAUAUUACGGAGA | -2.08 ± 0.15 | -1.93 ± 0.17 |
| UCAGAGCAAUAUUACGGCAA | -2.43 ± 0.33 |  |
| UCAGAGCAAUAUUACGGGAC | -3.74 ± 0.29 | -1.6 ± 0.33 |
| UCAGAGCAAUAUUACGGUAU | -2.79 ± 0.2 | -3.2 ± 0.44 |
| UCAGAGCAAUAUUACGGUGG | -3.06 ± 0.089 | -1.32 ± 0.084 |
| UCAGAGCAAUAUUACGUAAU | -2.52 ± 0.25 | -1.66 ± 0.3 |
| UCAGAGCAAUAUUACGUAUU | -3.31 ± 0.2 | -3.08 ± 0.29 |
| UCAGAGCAAUAUUACGUCGU | -2.89 ± 0.24 | -0.54 ± 0.24 |
| UCAGAGCAAUAUUACGUGGA | -2.49 ± 0.17 | -0.107 ± 0.12 |
| UCAGAGCAAUAUUACGUUCC | -3.84 ± 0.47 | -2.57 ± 0.49 |
| UCAUAGCAAUAUUACGAAGG | -2.69 ± 0.14 | -1.31 ± 0.11 |
| UCAUAGCAAUAUUACGAAUA | -2.82 ± 0.28 | -1.04 ± 0.28 |
| UCAUAGCAAUAUUACGAAUG | -2.7 ± 0.16 | -1.83 ± 0.16 |
| UCAUAGCAAUAUUACGAAUU | -3.73 ± 0.32 | -2.48 ± 0.24 |
| UCAUAGCAAUAUUACGACAA | -2.43 ± 0.26 | -1.06 ± 0.15 |
| UCAUAGCAAUAUUACGACAC |  | -2.64 ± 0.29 |
| UCAUAGCAAUAUUACGAGCC |  | -1.76 ± 0.49 |
| UCAUAGCAAUAUUACGAUGG | -3.32 ± 0.19 | -1.3 ± 0.17 |
| UCAUAGCAAUAUUACGAUUC | -2.39 ± 0.18 | -2.6 ± 0.33 |

| Sequence | self-splicing fitness (ln) (30 °C) | self-splicing fitness (ln) (37 °C) |
| --- | --- | --- |
| UCAUAGCAAUAUUACGAUUG | -2.31 ± 0.13 | -1.38 ± 0.13 |
| UCAUAGCAAUAUUACGCAAG | -1.94 ± 0.15 | -2.04 ± 0.2 |
| UCAUAGCAAUAUUACGCCGU | -3.49 ± 0.34 | -1.85 ± 0.39 |
| UCAUAGCAAUAUUACGCGUC | -3.76 ± 0.31 |  |
| UCAUAGCAAUAUUACGGGCG | -1.12 ± 0.096 | -0.909 ± 0.12 |
| UCAUAGCAAUAUUACGGUCC | -3.53 ± 0.37 | -1.81 ± 0.35 |
| UCAUAGCAAUAUUACGGUUG | -3.07 ± 0.19 | -1.94 ± 0.17 |
| UCAUAGCAAUAUUACGUAGU | -3.07 ± 0.21 | -2.17 ± 0.28 |
| UCAUAGCAAUAUUACGUCAA | -2.44 ± 0.32 |  |
| UCAUAGCAAUAUUACGUUAA |  | -3.44 ± 0.42 |
| UCAUAGCAAUAUUACGUUAG | -2.9 ± 0.25 | -1.66 ± 0.19 |
| UCCAAGCAAUAUUACGAACA | -1.87 ± 0.14 | -0.969 ± 0.13 |
| UCCAAGCAAUAUUACGAGAC |  | -2.23 ± 0.29 |
| UCCAAGCAAUAUUACGAGGC | -3.67 ± 0.23 | -2.26 ± 0.22 |
| UCCAAGCAAUAUUACGAUAG | -2.81 ± 0.13 | -2.98 ± 0.21 |
| UCCAAGCAAUAUUACGCGCG | -2.95 ± 0.17 | -1.49 ± 0.23 |
| UCCAAGCAAUAUUACGCGGC | -2.74 ± 0.23 | -2.94 ± 0.23 |
| UCCAAGCAAUAUUACGGCAC | -4.06 ± 0.29 | -0.668 ± 0.11 |
| UCCAAGCAAUAUUACGGCAU | -3.77 ± 0.21 | -1.48 ± 0.12 |
| UCCAAGCAAUAUUACGGCCC |  | -1.45 ± 0.32 |
| UCCAAGCAAUAUUACGGGGA | -2.58 ± 0.15 | -1.27 ± 0.1 |
| UCCAAGCAAUAUUACGGUCU | -2.33 ± 0.1 | -0.343 ± 0.097 |
| UCCAAGCAAUAUUACGGUUC | -3.22 ± 0.22 | -2.56 ± 0.18 |
| UCCAAGCAAUAUUACGUAGG | -0.867 ± 0.06 | -0.159 ± 0.094 |
